Assay: yeast display, Sf9 membrane polyspecificity reagent, FACS + sequencing; frameworks hold sequencing errors
Outline: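 Galactose induction of a Saccharomyces cerevisiae BJ5465 synthetic nanobody display library ran 36–48 hours. The cells were then stained for 1 hour at 4 °C with 10% biotinylated, detergent-solubilized Sf9 membrane reagent, pulled down on streptavidin microbeads and FACS-sorted into low and high (top ~1%) gates on expression and reagent-binding fluorescence. Labels for polyreactivity follow the gate of origin.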

Sequence	polyreactivity (PSR sort gate)
QVQLVESGGGLVQAGGSLRLSCAASGRTFVPYVMGWYRQAPGKESELVASITSGGSTYYADSVKGRFTISRDNAKNTVYLQMNSLKPEDTAVYYCATRQSAERWGYYYWGQGTQVTVSS	low polyreactivity
QVQLVESGGGLVQAGGSLRLSCAASGRTFVRNAMGWYRPAPGKERELVAAISSIGDSTYYADSVKGRFTISRDNAKNTVYLQMNSLKPEDTAVYYCAAEWVTSYYNYYHWGQGTQVTVSS	low polyreactivity
QVQLVESGGGLVQAGGSLRLSCAASGRTFVRNAMGWYRQAPGKERELVAAISRGGRTNYADSVKGRFTISRDNAKNTVYLQMNSLKPEDTPVYYCATGAGYYSDYDYWGQVTQVTVSS	high polyreactivity
QVQLVESGGGLVQAGGSLRLSCAASGRTFVRNAMGWYRQAPGKERELVAAISSIGDSTYYADSVKGRFTISRDNAKNTVYLQMNSLKPEDTAVYYWAAEWVTSYYNYYHWGQGTLVTVSS	low polyreactivity
QVQLVESGGGLVQAGGSLRLSCAASGRTFVRNAMGWYRQAPGKERELVATIRSGGSTNYADSVKGRFTISRDNAKNTVYLQMNSLKPEDTAVYYCATQGSRARYDYYYWGQGTQVTVSS	high polyreactivity
QVQLVESGGGLVQAGGSLRLSCAASGRTFVRYAMGWYRQAPGKERELVARITSRGTSTYYADSVKGRFTISRDNAKNTVYLQMNSLKPEDTAVYYCNKVSTFREKSRYDYWGQGTQVTVSS	low polyreactivity
QVQLVESGGGLVQAGGSLRLSCAASGRTFVRYTMGWYRQAPGKERELVAAISISGGRTYYADSVQGRFTISRDNAKNTVYLQMNSLKPEDTAVYYCAKDYLGGQLASTGGYDYWGLGTQVTVSS	low polyreactivity
QVQLVESGGGLVQAGGSLRLSCAASGRTFVSNAMGWYRQAPGKERELVAAISGSGGITYYADSVKGRFTISRDNAKNTVYLQMNSLKPEDTAVYYCNADSSGWFPFDYWGQGTQVTVSS	low polyreactivity
QVQLVESGGGLVQAGGSLRLSCAASGRTFVSYAMGWYRQAPGKERELVADITIGGSTNYADSVKGRFTISRDNAKNTVYLLMNSLKPEDTAVYDCAAYYSYPWDTVTTVDLYDYWGQGTQVTVSS	low polyreactivity
QVQLVESGGGLVQAGGSLRLSCAASGRTFVSYAMGWYRQAPGKERELVATITGSTGGTYYADSVKGRFTISRDNAKNTVYLQMNSLKPEDTAVYYCAADRTTYTYYLPYDYWGQGTQVTVSS	low polyreactivity
QVQLVESGGGLVQAGGSLRLSCAASGRTFVSYVMGWYRQAPGKERELVAAITWRGGSTYYADSVKGRFTISRDNAKNTVYLQMNSLKPEDTAVYYCAAPSHGSTSDRYYKFYYWGQGTQVTVSS	high polyreactivity
QVQLVESGGGLVQAGGSLRLSCAASGRTFVTNAMGWYRQAPGKERELVAAISSNGGSTYYADSVKGRFTISRDNAKNTVFLQMNSLKPEDTAVYYCNAEGQPLYVSWHDHRYIYGFDYWGQGTQVSVSS	low polyreactivity
QVQLVESGGGLVQAGGSLRLSCAASGRTFVTYAMGWYRQAPGKERELVAAISKRGSRTYYADSVKGRFTISRDNAKNTVYLQMNSLKPEDTAVYYCNADPYRTSYDYWGQGTQVTVSS	high polyreactivity
QVQLVESGGGLVQAGGSLRLSCAASGRTFVTYAMGWYRQAPGKERELVATINYSGGSTNYADSVKGRFTISRDNAKNTVYLQMNSLKPEDTAVYYCNTVPRQHRPGDYWGQGTQVTVSS	low polyreactivity
QVQLVESGGGLVQAGGSLRLSCAASGRTFVVNAMGWYRQAPGKEREFVAAISYRGDSTYYADSVKGRFTISRDNAKNTVYLQMNSLKPEDSAVYYCAARVLGPGRRYYYWGQGTQVTLSS	high polyreactivity
QVQLVESGGGLVQAGGSLRLSCAASGRTFVVNAMGWYSPAPGKEREFVAGISVRGGITYYADSVKGRFTISRDNAKNTVYLQMNSLKPEDTAVYYCAAYILDYGGDQRIFDYWGQGTQVTVSS	low polyreactivity
QVQLVESGGGLVQAGGSLRLSCAASGRTFVVYAMGWYRQAPGKERELVAAISYSGGSTYYADSVKGRFTISRDNAKNTVYLQMNSLKPEDTAVYYCAAVHLGYYHIYGLGYWGQGTQVTVSS	high polyreactivity
QVQLVESGGGLVQAGGSLRLSCAASGRTFVVYAMGWYRQAPGKERELVAGSGSTFYADSVKGRFTISPDNAKNTVYLQMNSLKPEDTAVYYCAADHPALYSLDWDTAYDYWGQGTQVTVSS	low polyreactivity
QVQLVESGGGLVQAGGSLRLSCAASGRTFVVYAMGWYRQAPGKERELVAVISFTGDSTFYADSVKGRFTISRDNSKNTVYLQMNSLKPEDTAVYYCAADFRRVFSKYSYYLYFDFDYWGQGTQVTVSS	low polyreactivity
QVQLVESGGGLVQAGGSLRLSCAASGRTFVWNAMGWYRQAPGKERELVAAITSGGSTNYADSVKGRFTISRDNAKNTVYLQMNSLKPEDTAVYYCAADWQYSPRMDYWGQGTQVTVSS	low polyreactivity
QVQLVESGGGLVQAGGSLRLSCAASGRTFVYNAMGWYRQAPGKERELVAAISAIDGSTYYADSVKGRFTISRDNAKNTVYLQMNSLKPEDTAVYYCAADTQLEASHKDRYEYDYWGQGTQVTVSS	low polyreactivity

Sequence	polyreactivity (PSR sort gate)
QVQLVESGGGLVQAGGSLRLSCAASGRTFVYNAMGWYRQAPGKERELVAAISQSGGSTYYADSVKGRFTISRDTAKNSVYLQMNSLKPEVTAVYDCAARYTTGSYVRYNFWGQGTQVTVSS	high polyreactivity
QVQLVESGGGLVQAGGSLRLSCAASGRTFVYNAMGWYRQAPGKERELVATITSSGNTYYADSVKGRFTISRDNAKNTVYLQMNSLKPEDTAVYYCNRRYWTSGYWGQGTQVTVSS	high polyreactivity
QVQLVESGGGLVQAGGSLRLSCAASGRTFVYNAMVWYRQAPGKEREFVAAISWRGGSTFYADSVKGRFTISRDNAKNTVYLQMNSLKPEDTAVYYCAAEGWYYRYDYWGQGTQVTVSS	high polyreactivity
QVQLVESGGGLVQAGGSLRLSCAASGRTFVYYAMGWYRQAPGKERELVAAIRRDTRTYYADSVKGRFTISRDNAKNTVYLQMNSQTPEDTAVYYCAADDPWHYDFDYWGQGTQVTVSS	low polyreactivity
QVQLVESGGGLVQAGGSLRLSCAASGRTFVYYAMGWYRQAPGKERELVAAISSGGSTYYADSVKGRFTISRDNAKNTVYLQMNSLKPEDTAVYYCNALRYTHYLLTYGYWGQGTQVTVSS	high polyreactivity
QVQLVESGGGLVQAGGSLRLSCAASGRTFVYYAMGWYRQAPGKERELVAAITSGGGTNYADSVKGRFTISRDNAKNSVYLQMNSLKPEDTAVYYCNADPRWYHFEYGYWGQGTQVTVSS	high polyreactivity
QVQLVESGGGLVQAGGSLRLSCAASGRTFVYYDMGWYRQAPGKERELVAAISRRGDTTYYADSVKGRFTISRDNAKNTVYLQMNSLKPVDTAVYYCNARSIKYGSWGQGTQVTVSS	high polyreactivity
QVQLVESGGGLVQAGGSLRLSCAASGRTFWAYALGWYRQGPGKERELVAAITTSGGSTNYADSVKGRFTISRDNAKNTVYVQLHSLKPEDTAVYYCNADPTYPVVNGVGYWGQGTQVTVSS	low polyreactivity
QVQLVESGGGLVQAGGSLRLSCAASGRTFWDYAMGWYRQAPGKERELVAAITGGITNYADSVKGRFTISRDNAKNTVYLQMNSLKPEDTAVYYCAVYYRRWFSRYDYWGQGTQVTVSS	low polyreactivity
QVQLVESGGGLVQAGGSLRLSCAASGRTFWDYGMGWYRQAPGKERELVATISGNGGDTYYADSVKGRFTISRDNAKNTVYLQMNSLKPEDTAVYYCAAAWPSTGLLYVLGYSGYGYWGQGTQVTVSS	low polyreactivity
QVQLVESGGGLVQAGGSLRLSCAASGRTFWFNAMGWYRQAPGKERELVASITLSGGSTYYADSVKGRFTISRDNAKITVYLQMNSLKPEDTAVYYCAADQTVHISSYDYWGQGTQVTVSS	low polyreactivity
QVQLVESGGGLVQAGGSLRLSCAASGRTFWFYDMGWYRQAPGKEREFVASITSSGGSTYYADSVKGRFTISRDIAKNTVYLQMNSLKPEDTAVYYCAASFYWTTRYSREYDYWGQGTQVTVSS	high polyreactivity
QVQLVESGGGLVQAGGSLRLSCAASGRTFWGYAMGWYRQAPGKERELVAAISCRGGRTYYADSVKGRFTISRDNAKNTVYLQMNSLKPEDTAVYYCNRAYLLRPDLYDYWGQGTQVTVSS	low polyreactivity
QVQLVESGGGLVQAGGSLRLSCAASGRTFWGYAMGWYRQAPGKERELVAAISWSGTSTYYADSVKGRFTISRDNAKNTVYLQMNRLKPEDSAVYYCARAVNDWSRKYNYWGQGTLVTVSS	high polyreactivity
QVQLVESGGGLVQAGGSLRLSCAASGRTFWKYAMGWSRQAPGKERELVAAITDDDSTDYADSVKGRFTISRDNAKNTVYLQMTSLKPEYTAVYYCNADSSRYYRALEYWGQGTQVTVSS	low polyreactivity
QVQLVESGGGLVQAGGSLRLSCAASGRTFWKYAMGWYRQAPGKERELVAAISSSGGNTYYADSVKGRFTISRDNAKNSVYLQMNSLKPEDTAVYYCAARLPRGAYYYWGQGTQVTVSS	high polyreactivity
QVQLVESGGGLVQAGGSLRLSCAASGRTFWNNAMGWYRQAPGKERELVAAISVRGGSTYYADSVKGRFTISRDNAKNTVYLQMNSLKPEDTAVYYCATRSRGWIAPPWQGSDGYYYWGQGTQVTVSS	low polyreactivity
QVQLVESGGGLVQAGGSLRLSCAASGRTFWNYAMGWSRQAPGKERELVAVIRFSDGSTYYADSVKGRFTISRDNAKNTVYLQMNSLKPEDTAVYYCAAKGPRRWGSGFDYWGQGTQVTVSS	low polyreactivity
QVQLVESGGGLVQAGGSLRLSCAASGRTFWNYAMGWYRQAPGKERELVAVIRFSDGSTYYADSVKGRFTISRDNAKNTGYLQMISLKPEDTAVFYCAAKGPRRWGSGFDYWGQGTQVTVSS	low polyreactivity
QVQLVESGGGLVQAGGSLRLSCAASGRTFWPYAMGWYRQAPGKERELLAAITSDGSTTYADSVKGRFTISRDNAKNTVYLQMNSLTPEDTAVYYCAAYGYYYYQTIPMDYWGQGTQVTVSS	low polyreactivity

Reference: the nanobody polyreactivity screen of Harvey et al. (2022)
